Test results published in ChEMBL document CHEMBL2074060, “MDR1 P-glycoprotein transports endogenous opioid peptides” (Peptides, 2001).

Test system: C[C@@H](NC(=O)[C@@H](N)Cc1ccc(O)cc1)C(=O)NCC(=O)N(C)[C@@H](Cc1ccccc1)C(=O)NCCO
Experiment: TP_TRANSPORTER: uptake in membrane vesicle from MDR1-expressing SW1573/S1 cell
Format: functional, cell membranes

Substance “ATP-dependent translocase ABCB1 (Homo sapiens)” has a Km of 43 µM.
